Measured values as given in PMC3552686, “Biosynthesis of allene oxides in Physcomitrella patens” (BMC Plant Biology, 2012).

Experiments:
Test in all cases: purified protein
Format in all cases: biochemical, Physcomitrium patens
purified protein [1] = substrate: CC/C=C\C/C=C\C=C\[C@H](CCCCCCCC(=O)O)OO; settings: pH 6.5, room temperature, 0.1 nM enzyme, kcat corrected to 100% heme
purified protein [2] = substrate: CC/C=C\C[C@@H](/C=C/C=C\CCCCCCCC(=O)O)OO; settings: pH 6.5, room temperature, 0.1 nM enzyme, kcat corrected to 100% heme
purified protein [3] = substrate: CCCCC/C=C\C=C\[C@H](C/C=C\CCCCC(=O)O)OO; settings: pH 6.5, room temperature, 0.05 nM enzyme, kcat corrected to 100% heme
purified protein [4] = substrate: CCCCC/C=C\C=C\[C@H](CCCCCCCC(=O)O)OO; settings: pH 6.5, room temperature, 0.1 nM enzyme, kcat corrected to 100% heme
purified protein [5] = substrate: CCCCC/C=C\C[C@@H](/C=C/C=C\C/C=C\CCCC(=O)O)OO; settings: pH 6.5, room temperature, 0.1 nM enzyme, kcat corrected to 100% heme
purified protein [6] = substrate: CCCCC[C@@H](/C=C/C=C\C/C=C\CCCCC(=O)O)OO; settings: pH 6.5, room temperature, 0.05 nM enzyme, kcat corrected to 100% heme
purified protein [7] = substrate: CCCCC[C@@H](/C=C/C=C\CCCCCCCC(=O)O)OO; settings: pH 6.5, room temperature, 0.1 nM enzyme, kcat corrected to 100% heme

B1: PpAOS1 (Physcomitrium patens) (protein)
chain: MAVPSSKLPLKAIPGDYGVPYFGAIKDRLDYFWLQGEEQFYRSRMAKYNSTVFRVNMPPGPPISEHPQVICLLDQKSFPILFDVSKVEKKDVFTGTYMPSVSFTSGYRVCSYLDPSEERHTKLKQWCFEVIAMNGRNFLPEFHKSIEESMVLWETSLAKGEKTSVSDEVKQFAFNFLMRAVCHHDPAAPGEYSLGRNGGPYATAWANPQLAPIAGQTGLPHVVEELVLHTVPLPSALVKKNYDALYNFIKNYATEALDRAEAMGIERNDATANLLFFLCFNAYGGFSIFFPLITILISSCGPELMHDLHDEVTKAVAATDGKVTLQSIENMPLVKSVVYEAFRFKPPVPYQYGKAKFDFTIENHENSFEVKKGEMLYGYQPIVMHDPKVFSDPDQFLPRRFMGPDGEKLIKYIFWSNGYETDEPTTANKQCAGKDLVVTMARAFVAEMFLRYKEYTLTMEGAGNATKVFFSDLKK
notes: cDNA from protonema library; N-terminal His6 tag kept (pQE30), E. coli SG13009[pRep4]
Work on B1 yielded a Km (purified protein [1]) of 39 ± 14 µM, a Vmax (purified protein [1]) of 0.2 µM/min and a kcat (purified protein [1]) of 112 s⁻¹. It also gave a kcat/Km (purified protein [1]) of 2.87e+06 M⁻¹ s⁻¹, a Km (purified protein [2]) of 95 ± 27 µM and a Vmax (purified protein [2]) of 0.9 µM/min. For the same protein, the kcat (purified protein [2]) was 501 s⁻¹, the kcat/Km (purified protein [2]) was 5.27e+06 M⁻¹ s⁻¹ and the Km (purified protein [3]) was 46 ± 17 µM. It also gave a Vmax (purified protein [3]) of 2.35 µM/min, a kcat (purified protein [3]) of 2610 s⁻¹ and a kcat/Km (purified protein [3]) of 5.71e+07 M⁻¹ s⁻¹. For the same protein, the Km (purified protein [4]) was 121 ± 61 µM, the Vmax (purified protein [4]) was 0.98 µM/min and the kcat (purified protein [4]) was 545 s⁻¹. For the same protein, the kcat/Km (purified protein [4]) was 4.5e+06 M⁻¹ s⁻¹, the Km (purified protein [5]) was 7 ± 2 µM and the Vmax (purified protein [5]) was 0.23 µM/min. It also gave a kcat (purified protein [5]) of 128 s⁻¹, a kcat/Km (purified protein [5]) of 1.96e+07 M⁻¹ s⁻¹ and a Km (purified protein [6]) of 107 ± 57 µM. The Vmax (purified protein [6]) was 2.77 µM/min, the kcat (purified protein [6]) was 3080 s⁻¹ and the kcat/Km (purified protein [6]) was 2.88e+07 M⁻¹ s⁻¹. The Km (purified protein [7]) was 83 ± 42 µM, the Vmax (purified protein [7]) was 0.96 µM/min and the kcat (purified protein [7]) was 531 s⁻¹. For the same protein, the kcat/Km (purified protein [7]) was 6.4e+06 M⁻¹ s⁻¹.
